Laboratory results reported in the supplement of paper PMC10065799, “High-throughput profiling of sequence recognition by tyrosine kinases and SH2 domains using bacterial peptide display” (eLife, 2023).

How the values were obtained:
Grb2 SH2 = Grb2 SH2 (UniProt P62993); assay: SH2 binding enrichment of the phosphorylated peptide, bacterial display (enrichment ratio); higher = better substrate or ligand; peptides without Tyr show the background
c-Src SH2 = assay: as above
SHP2-C SH2 = assay: as above
Hck = Hck (UniProt P08631); assay: phosphorylation enrichment, bacterial display (enrichment ratio); higher = better substrate or ligand; peptides without Tyr show the background
Hck, sequence (P08631 whole entry, looked up): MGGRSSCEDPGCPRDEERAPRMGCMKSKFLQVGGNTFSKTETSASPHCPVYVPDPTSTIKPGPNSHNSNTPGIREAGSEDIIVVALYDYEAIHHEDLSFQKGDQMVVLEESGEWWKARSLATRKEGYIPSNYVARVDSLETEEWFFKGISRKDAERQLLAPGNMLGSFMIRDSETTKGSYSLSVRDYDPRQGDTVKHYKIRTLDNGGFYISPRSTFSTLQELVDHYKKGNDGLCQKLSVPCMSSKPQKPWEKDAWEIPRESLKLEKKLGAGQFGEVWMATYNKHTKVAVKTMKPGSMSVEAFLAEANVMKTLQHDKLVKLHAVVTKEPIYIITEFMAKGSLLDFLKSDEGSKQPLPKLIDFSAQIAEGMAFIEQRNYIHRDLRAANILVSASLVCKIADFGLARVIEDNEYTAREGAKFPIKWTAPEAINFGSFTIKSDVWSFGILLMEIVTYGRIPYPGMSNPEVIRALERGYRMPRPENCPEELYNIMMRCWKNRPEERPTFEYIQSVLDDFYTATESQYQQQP

EPHB1 = EPHB1 (UniProt P54762); assay: as above
EPHB1, sequence (P54762 whole entry, looked up): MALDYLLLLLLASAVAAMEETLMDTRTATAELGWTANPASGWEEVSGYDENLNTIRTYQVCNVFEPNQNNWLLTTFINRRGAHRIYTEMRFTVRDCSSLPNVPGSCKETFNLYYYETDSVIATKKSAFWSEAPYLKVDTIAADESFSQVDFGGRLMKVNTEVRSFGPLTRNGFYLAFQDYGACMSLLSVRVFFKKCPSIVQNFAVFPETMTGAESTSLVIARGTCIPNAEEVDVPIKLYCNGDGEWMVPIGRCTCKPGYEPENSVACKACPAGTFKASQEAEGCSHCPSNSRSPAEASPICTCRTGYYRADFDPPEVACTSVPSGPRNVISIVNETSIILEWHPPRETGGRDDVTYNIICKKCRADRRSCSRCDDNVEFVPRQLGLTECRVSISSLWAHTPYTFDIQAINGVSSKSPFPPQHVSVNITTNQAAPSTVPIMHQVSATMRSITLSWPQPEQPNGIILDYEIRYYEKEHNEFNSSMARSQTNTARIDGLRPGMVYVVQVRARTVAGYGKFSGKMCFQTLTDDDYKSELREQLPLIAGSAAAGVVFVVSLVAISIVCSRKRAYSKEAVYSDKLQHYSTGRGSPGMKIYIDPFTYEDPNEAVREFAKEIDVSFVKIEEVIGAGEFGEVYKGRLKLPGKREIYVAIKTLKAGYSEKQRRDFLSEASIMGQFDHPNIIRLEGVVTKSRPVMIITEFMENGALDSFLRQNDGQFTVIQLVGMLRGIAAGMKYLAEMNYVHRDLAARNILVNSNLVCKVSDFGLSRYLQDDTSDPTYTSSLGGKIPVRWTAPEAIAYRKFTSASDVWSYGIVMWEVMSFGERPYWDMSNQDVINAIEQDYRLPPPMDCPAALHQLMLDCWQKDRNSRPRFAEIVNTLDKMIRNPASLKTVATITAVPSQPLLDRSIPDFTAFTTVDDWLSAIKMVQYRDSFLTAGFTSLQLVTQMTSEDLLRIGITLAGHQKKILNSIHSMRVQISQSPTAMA

MERTK = MERTK (UniProt Q12866); assay: as above
MERTK, sequence (Q12866 whole entry, looked up): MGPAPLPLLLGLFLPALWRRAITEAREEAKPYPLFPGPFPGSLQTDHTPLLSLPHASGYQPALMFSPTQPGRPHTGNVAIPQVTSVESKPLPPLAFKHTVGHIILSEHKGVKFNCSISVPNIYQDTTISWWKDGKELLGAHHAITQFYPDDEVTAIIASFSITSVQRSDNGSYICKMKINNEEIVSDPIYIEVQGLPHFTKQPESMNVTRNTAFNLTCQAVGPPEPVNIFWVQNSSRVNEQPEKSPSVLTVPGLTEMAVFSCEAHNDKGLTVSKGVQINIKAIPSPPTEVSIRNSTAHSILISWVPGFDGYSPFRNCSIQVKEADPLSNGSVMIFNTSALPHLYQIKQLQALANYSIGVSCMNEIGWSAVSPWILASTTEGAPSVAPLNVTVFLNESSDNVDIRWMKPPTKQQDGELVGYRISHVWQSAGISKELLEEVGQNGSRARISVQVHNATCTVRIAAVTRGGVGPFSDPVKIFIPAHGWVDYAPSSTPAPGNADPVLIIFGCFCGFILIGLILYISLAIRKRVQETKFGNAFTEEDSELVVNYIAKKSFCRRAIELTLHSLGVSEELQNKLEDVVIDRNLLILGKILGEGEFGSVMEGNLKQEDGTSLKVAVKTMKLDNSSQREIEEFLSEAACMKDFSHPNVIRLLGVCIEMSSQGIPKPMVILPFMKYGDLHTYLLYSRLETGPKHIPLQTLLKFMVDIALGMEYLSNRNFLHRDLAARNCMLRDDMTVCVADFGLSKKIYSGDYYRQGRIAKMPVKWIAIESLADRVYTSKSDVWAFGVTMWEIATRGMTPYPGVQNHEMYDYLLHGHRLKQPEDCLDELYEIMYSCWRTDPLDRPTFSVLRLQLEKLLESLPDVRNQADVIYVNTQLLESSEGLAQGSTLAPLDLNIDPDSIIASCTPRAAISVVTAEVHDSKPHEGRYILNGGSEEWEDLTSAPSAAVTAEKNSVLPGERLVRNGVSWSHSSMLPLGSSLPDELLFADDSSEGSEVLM

c-Abl (mouse) = assay: as above
EPHB2 = EPHB2 (UniProt P29323); assay: as above
EPHB2, sequence (P29323 whole entry, looked up): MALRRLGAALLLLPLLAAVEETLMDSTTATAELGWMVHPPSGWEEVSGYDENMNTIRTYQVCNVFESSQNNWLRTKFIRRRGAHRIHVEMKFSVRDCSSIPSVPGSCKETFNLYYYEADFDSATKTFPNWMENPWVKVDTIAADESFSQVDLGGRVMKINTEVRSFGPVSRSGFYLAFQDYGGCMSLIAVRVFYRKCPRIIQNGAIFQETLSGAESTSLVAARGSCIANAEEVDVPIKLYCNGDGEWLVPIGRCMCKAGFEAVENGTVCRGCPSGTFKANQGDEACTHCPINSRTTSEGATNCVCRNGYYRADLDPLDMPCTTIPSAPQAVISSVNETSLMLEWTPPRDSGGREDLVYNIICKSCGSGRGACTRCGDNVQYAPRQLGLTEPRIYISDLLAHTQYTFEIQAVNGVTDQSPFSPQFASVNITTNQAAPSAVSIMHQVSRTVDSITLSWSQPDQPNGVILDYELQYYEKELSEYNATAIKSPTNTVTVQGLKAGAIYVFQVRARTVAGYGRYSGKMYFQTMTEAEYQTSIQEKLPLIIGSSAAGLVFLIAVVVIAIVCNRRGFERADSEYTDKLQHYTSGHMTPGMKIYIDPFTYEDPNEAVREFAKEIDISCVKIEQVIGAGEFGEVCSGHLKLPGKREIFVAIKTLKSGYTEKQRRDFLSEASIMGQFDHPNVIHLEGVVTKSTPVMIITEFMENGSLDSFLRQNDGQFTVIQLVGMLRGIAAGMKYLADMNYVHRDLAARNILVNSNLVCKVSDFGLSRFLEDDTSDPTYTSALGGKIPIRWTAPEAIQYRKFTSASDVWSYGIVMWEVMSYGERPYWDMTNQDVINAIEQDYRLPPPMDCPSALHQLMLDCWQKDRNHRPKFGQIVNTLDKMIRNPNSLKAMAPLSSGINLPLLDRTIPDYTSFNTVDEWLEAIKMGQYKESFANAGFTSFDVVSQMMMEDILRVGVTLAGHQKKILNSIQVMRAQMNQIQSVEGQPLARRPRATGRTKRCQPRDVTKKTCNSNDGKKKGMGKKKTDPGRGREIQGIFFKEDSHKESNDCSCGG

Fer (mouse) = assay: as above
FGFR1 = FGFR1 (UniProt P11362); assay: as above
FGFR1, sequence (P11362 whole entry, looked up): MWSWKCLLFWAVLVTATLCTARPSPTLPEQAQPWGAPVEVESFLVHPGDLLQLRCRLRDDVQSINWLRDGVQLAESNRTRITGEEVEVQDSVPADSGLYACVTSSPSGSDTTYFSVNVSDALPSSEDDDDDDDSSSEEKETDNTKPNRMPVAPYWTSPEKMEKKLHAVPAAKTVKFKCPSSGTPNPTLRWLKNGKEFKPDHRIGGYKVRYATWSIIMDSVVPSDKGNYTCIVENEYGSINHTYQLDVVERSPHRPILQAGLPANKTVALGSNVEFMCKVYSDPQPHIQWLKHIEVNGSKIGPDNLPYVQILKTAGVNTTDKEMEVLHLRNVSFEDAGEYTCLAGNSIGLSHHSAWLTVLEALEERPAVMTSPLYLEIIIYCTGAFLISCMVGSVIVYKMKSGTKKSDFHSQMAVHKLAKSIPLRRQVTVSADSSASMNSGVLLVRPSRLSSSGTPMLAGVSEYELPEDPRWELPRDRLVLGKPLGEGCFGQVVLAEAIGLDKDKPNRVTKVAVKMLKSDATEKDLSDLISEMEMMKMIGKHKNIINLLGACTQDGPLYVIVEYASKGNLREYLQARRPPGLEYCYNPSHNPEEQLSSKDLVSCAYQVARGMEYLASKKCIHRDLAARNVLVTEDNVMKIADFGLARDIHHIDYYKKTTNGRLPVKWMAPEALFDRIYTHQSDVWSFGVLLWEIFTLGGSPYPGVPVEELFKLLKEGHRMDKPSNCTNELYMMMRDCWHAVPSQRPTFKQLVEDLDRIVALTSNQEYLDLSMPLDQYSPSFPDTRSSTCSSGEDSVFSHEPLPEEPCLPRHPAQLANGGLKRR

Fes = Fes (UniProt P07332); assay: as above
Jak2 = Jak2 (UniProt O60674); assay: as above
c-Src = assay: as above
Fyn = Fyn (UniProt P06241); assay: as above
Fyn, sequence (P06241 whole entry, looked up): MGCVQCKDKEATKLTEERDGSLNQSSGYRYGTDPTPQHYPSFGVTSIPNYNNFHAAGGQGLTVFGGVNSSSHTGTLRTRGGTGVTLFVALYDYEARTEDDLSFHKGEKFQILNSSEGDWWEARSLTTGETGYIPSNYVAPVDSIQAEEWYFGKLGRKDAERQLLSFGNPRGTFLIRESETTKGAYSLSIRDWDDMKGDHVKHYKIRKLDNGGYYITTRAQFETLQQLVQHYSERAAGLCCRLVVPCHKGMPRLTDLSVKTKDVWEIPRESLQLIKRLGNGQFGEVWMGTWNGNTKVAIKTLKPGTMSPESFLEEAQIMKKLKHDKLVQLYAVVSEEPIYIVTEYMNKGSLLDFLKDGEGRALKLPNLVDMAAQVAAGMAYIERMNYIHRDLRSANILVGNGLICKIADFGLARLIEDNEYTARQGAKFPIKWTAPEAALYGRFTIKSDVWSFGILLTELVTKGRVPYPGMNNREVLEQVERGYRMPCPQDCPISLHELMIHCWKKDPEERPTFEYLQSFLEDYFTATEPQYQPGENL

FGFR3 = FGFR3 (UniProt P22607); assay: as above
AncSZ = assay: as above
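Wherever SH2 binding enrichment of the phosphorylated peptide, bacterial display is given: peptide library displayed on the E. coli surface as eCPX fusions, selected cells deep-sequenced, score is each peptide's frequency after selection divided by its frequency in the input.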
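Wherever phosphorylation enrichment, bacterial display is given: 11-residue human phosphosite peptides and single-mutation variants displayed on the E. coli surface, counted by deep sequencing, each peptide's frequency after selection divided by its frequency in the unselected input library; frequency after pTyr selection over input frequency; kinase dosed for 20-30% of maximal phosphorylation in three min.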

Sequence | SH2 binding enrichment (Grb2 SH2) | SH2 binding enrichment (c-Src SH2) | SH2 binding enrichment (SHP2-C SH2) | phosphorylation enrichment (Hck) | phosphorylation enrichment (EPHB1) | phosphorylation enrichment (MERTK) | phosphorylation enrichment (c-Abl (mouse)) | phosphorylation enrichment (EPHB2) | phosphorylation enrichment (Fer (mouse)) | phosphorylation enrichment (FGFR1) | phosphorylation enrichment (Fes) | phosphorylation enrichment (Jak2) | phosphorylation enrichment (c-Src) | phosphorylation enrichment (Fyn) | phosphorylation enrichment (FGFR3) | phosphorylation enrichment (AncSZ)
IAINKYGVSLI [MYO7A_Y2136] | 0.946 | 0.657 | 0.703 | 0.497 | 0.608 | 0.426 | 0.744 | 0.613 | 0.527 | 0.619 | 1.12 | 1.01 | 0.441 | 0.432 | 0.594 | 0.837
TSSAGYRAAEG [COL6A3_Y543] | 0.903 | 0.485 | 0.653 | 0.379 | 0.505 | 0.365 | 0.309 | 0.406 | 0.429 | 0.573 | 0.629 | 0.365 | 0.316 | 0.422 | 0.641 | 0.524
TTEHIYGDKFF [UBA7_Y524_N527K] | 0.704 | 0.471 | 0.655 | 2.15 | 0.468 | 0.459 | 0.728 | 0.477 | 0.502 | 0.597 | 0.762 | 0.648 | 4.65 | 4.92 | 0.563 | 0.722
SSSPTYLDLPF [GLI3_Y168_P169L] | 0.786 | 0.464 | 0.57 | 2.25 | 8.94 | 1.12 | 0.681 | 2.73 | 0.621 | 5.82 | 0.667 | 0.592 | 0.647 | 0.638 | 3.79 | 0.659
YIATQYSLRPR [LBR_Y166] | 0.762 | 0.392 | 0.685 | 0.568 | 0.511 | 0.731 | 0.72 | 0.493 | 0.439 | 0.551 | 0.773 | 0.779 | 0.659 | 0.558 | 0.527 | 0.932
EREYKYGAHNH [OAT_Y50_Y55H] | 0.981 | 0.708 | 0.743 | 0.44 | 0.391 | 0.496 | 0.483 | 0.509 | 0.364 | 0.485 | 0.603 | 0.591 | 0.415 | 0.406 | 0.463 | 0.525
EEQKKYFNAMK [SCN5A_Y1494_YF] | 0.901 | 0.421 | 0.847 | 0.459 | 0.459 | 0.428 | 0.616 | 0.474 | 0.341 | 0.421 | 0.866 | 0.672 | 0.479 | 0.489 | 0.656 | 0.882
RSSGPYGGGGQ [HNRNPA1_Y341] | 0.961 | 0.606 | 0.623 | 0.616 | 0.466 | 0.625 | 0.643 | 0.485 | 0.518 | 0.589 | 0.686 | 0.485 | 0.56 | 0.715 | 0.441 | 0.811
ALKKPYGVLFK [RPF2_Y59_YF] | 2.15 | 1.76 | 2.29 | 0.632 | 0.469 | 0.528 | 0.712 | 0.502 | 0.403 | 0.404 | 0.722 | 0.73 | 0.777 | 0.562 | 0.518 | 0.765
LITTLYSGFLG [KCNQ1_Y267_I268S] | 1.54 | 1.44 | 1.56 | 3.96 | 0.965 | 3.39 | 1.22 | 0.611 | 0.824 | 0.339 | 1.08 | 0.992 | 6.52 | 5.49 | 0.755 | 1.38

Now from value to sequence, other results behind:

SH2 binding enrichment (Grb2 SH2) | SH2 binding enrichment (c-Src SH2) | SH2 binding enrichment (SHP2-C SH2) | Sequence | phosphorylation enrichment (Hck) | phosphorylation enrichment (EPHB1) | phosphorylation enrichment (MERTK) | phosphorylation enrichment (c-Abl (mouse)) | phosphorylation enrichment (EPHB2) | phosphorylation enrichment (Fer (mouse)) | phosphorylation enrichment (FGFR1) | phosphorylation enrichment (Fes) | phosphorylation enrichment (Jak2) | phosphorylation enrichment (c-Src) | phosphorylation enrichment (Fyn) | phosphorylation enrichment (FGFR3) | phosphorylation enrichment (AncSZ)
0.764 | 0.552 | 0.506 | MICSAYALGGL [CPS1_Y590_R587C] | 0.72 | 0.623 | 0.571 | 0.811 | 0.601 | 0.551 | 0.635 | 1.05 | 0.983 | 0.779 | 0.659 | 0.844 | 0.961
0.772 | 0.482 | 0.745 | FDCKWYIPLTD [BCR_Y756_YF] | 0.581 | 0.998 | 0.625 | 0.826 | 0.818 | 0.66 | 0.661 | 1.49 | 1.44 | 0.466 | 0.41 | 1.06 | 1.45
0.85 | 0.624 | 1.1 | PLQNTYNFNVL [SLC4A1_Y553_K551N_YF] | 0.57 | 0.798 | 0.634 | 0.893 | 0.756 | 0.812 | 0.803 | 1.43 | 0.959 | 2.52 | 1.67 | 0.616 | 0.891
0.595 | 0.571 | 0.353 | RGRSTCFWPRP [GAGE12J_Y9_Y9C_YF] | 0.635 | 0.782 | 0.796 | 1.04 | 0.733 | 0.786 | 1.05 | 0.772 | 1.19 | 0.867 | 0.693 | 0.928 | 0.71
1.41 | 1.04 | 1.58 | TRSCKYLLLSM [NF1_Y491_Y489C] | 0.549 | 0.521 | 0.512 | 0.614 | 0.621 | 0.416 | 0.53 | 0.954 | 0.864 | 0.39 | 0.441 | 0.552 | 0.823
